Measurements: the supplement of paper PMC5998384

How the values were obtained:
HeLa Kyoto [1] = experiment: thermal stability score vs G1/S (z-score of summed log2 fold changes over temperatures); higher = more thermally stable than in G1/S
HeLa Kyoto [2] = experiment: solubility change mitosis vs G1/S (difference of NP-40 vs SDS log2 ratios) (log2 ratio difference); higher = more soluble in mitosis
HeLa Kyoto [3] = experiment: solubility in G1/S (NP-40 vs SDS abundance) (log2 ratio); higher = more soluble; details: cell cycle stage: G1/S
HeLa Kyoto [4] = experiment: melting temperature (median over replicates), in situ; higher = more thermally stable
[5] = cell cycle stage: early G1 (4.5 h after nocodazole release)
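Wherever melting temperature (median over replicates), in situ is given: HeLa Kyoto cells synchronized by double thymidine or nocodazole block, proteins quantified by TMT10plex mass spectrometry, three independent biological replicates.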
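Wherever solubility change mitosis vs G1/S (difference of NP-40 vs SDS log2 ratios) is given: synchronized HeLa Kyoto cells (double thymidine block for G1/S, nocodazole release for mitosis), protein amounts in NP-40 versus SDS lysates quantified by mass spectrometry, three biological replicates.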
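Wherever solubility in G1/S (NP-40 vs SDS abundance) is given: HeLa Kyoto cells arrested at G1/S by double thymidine block, proteins quantified by TMT10plex mass spectrometry in mild NP-40 versus SDS extracts, three biological replicates.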
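Wherever thermal stability score vs G1/S (z-score of summed log2 fold changes over temperatures) is given: synchronized HeLa Kyoto cells, proteins quantified by TMT10plex mass spectrometry, three biological replicates, mitosis taken 0.5 h after nocodazole release, G1/S directly after double thymidine block.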

MAEPVSPLKHFVLAKKAITAIFDQLLEFVTEGSHFVEATYKNPELDRIATEDDLVEMQGYKDKLSIIGEVLSRRHMKVAFFGRTSSGKSSVINAMLWDKVLPSGIGHITNCFLSVEGTDGDKAYLMTEGSDEKKSVKTVNQLAHALHMDKDLKAGCLVRVFWPKAKCALLRDDLVLVDSPGTDVTTELDSWIDKFCLDADVFVLVANSESTLMNTEKHFFHKVNERLSKPNIFILNNRWDASASEPEYMEDVRRQHMERCLHFLVEELKVVNALEAQNRIFFVSAKEVLSARKQKAQGMPESGVALAEGFHARLQEFQNFEQIFEECISQSAVKTKFEQHTIRAKQILATVKNIMDSVNLAAEDKRHYSVEEREDQIDRLDFIRNQMNLLTLDVKKKIKEVTEEVANKVSCAMTDEICRLSVLVDEFCSEFHPNPDVLKIYKSELNKHIEDGMGRNLADRCTDEVNALVLQTQQEIIENLKPLLPAGIQDKLHTLIPCKKFDLSYNLNYHKLCSDFQEDIVFRFSLGWSSLVHRFLGPRNAQRVLLGLSEPIFQLPRSLASTPTAPTTPATPDNASQEELMITLVTGLASVTSRTSMGIIIVGGVIWKTIGWKLLSVSLTMYGALYLYERLSWTTHAKERAFKQQFVNYATEKLRMIVSSTSANCSHQVKQQIATTFARLCQQVDITQKQLEEEIARLPKEIDQLEKIQNNSKLLRNKAVQLENELENFTKQFLPSSNEES [MFN1]
thermal stability score (HeLa Kyoto [1]; [5]): -0.212 | thermal stability score (HeLa Kyoto [1]; cell cycle stage: mitosis): -0.832 | solubility change mitosis (log2) (HeLa Kyoto [2]): -0.0897 | solubility in G1/S (log2) (HeLa Kyoto [3]): -0.168 | melting temperature (HeLa Kyoto [4]; cell cycle stage: G1/S): 52 °C | melting temperature (HeLa Kyoto [4]; cell cycle stage: mitosis): 51.3 °C

MAEQEPTAEQLAQIAAENEEDEHSVNYKPPAQKSIQEIQELDKDDESLRKYKEALLGRVAVSADPNVPNVVVTGLTLVCSSAPGPLELDLTGDLESFKKQSFVLKEGVEYRIKISFRVNREIVSGMKYIQHTYRKGVKIDKTDYMVGSYGPRAEEYEFLTPVEEAPKGMLARGSYSIKSRFTDDDKTDHLSWEWNLTIKKDWKD [ARHGDIA]
thermal stability score (HeLa Kyoto [1]; [5]): 0.408 | thermal stability score (HeLa Kyoto [1]; cell cycle stage: mitosis): -2.01 | solubility change mitosis (log2) (HeLa Kyoto [2]): -0.109 | solubility in G1/S (log2) (HeLa Kyoto [3]): 0.25 | melting temperature (HeLa Kyoto [4]; cell cycle stage: G1/S): 51.5 °C | melting temperature (HeLa Kyoto [4]; cell cycle stage: mitosis): 51.7 °C

MAERAALEELVKLQGERVRGLKQQKASAELIEEEVAKLLKLKAQLGPDESKQKFVLKTPKGTRDYSPRQMAVREKVFDVIIRCFKRHGAEVIDTPVFELKETLMGKYGEDSKLIYDLKDQGGELLSLRYDLTVPFARYLAMNKLTNIKRYHIAKVYRRDNPAMTRGRYREFYQCDFDIAGNFDPMIPDAECLKIMCEILSSLQIGDFLVKVNDRRILDGMFAICGVSDSKFRTICSSVDKLDKVSWEEVKNEMVGEKGLAPEVADRIGDYVQQHGGVSLVEQLLQDPKLSQNKQALEGLGDLKLLFEYLTLFGIDDKISFDLSLARGLDYYTGVIYEAVLLQTPAQAGEEPLGVGSVAAGGRYDGLVGMFDPKGRKVPCVGLSIGVERIFSIVEQRLEALEEKIRTTETQVLVASAQKKLLEERLKLVSELWDAGIKAELLYKKNPKLLNQLQYCEEAGIPLVAIIGEQELKDGVIKLRSVTSREEVDVRREDLVEEIKRRTGQPLCIC [HARS]
thermal stability score (HeLa Kyoto [1]; [5]): 5.06 | thermal stability score (HeLa Kyoto [1]; cell cycle stage: mitosis): 4.5 | solubility change mitosis (log2) (HeLa Kyoto [2]): -0.113 | solubility in G1/S (log2) (HeLa Kyoto [3]): 0.354 | melting temperature (HeLa Kyoto [4]; cell cycle stage: G1/S): 53.5 °C | melting temperature (HeLa Kyoto [4]; cell cycle stage: mitosis): 53 °C

MAERGELDLTGAKQNTGVWLVKVPKYLSQQWAKASGRGEVGKLRIAKTQGRTEVSFTLNEDLANIHDIGGKPASVSAPREHPFVLQSVGGQTLTVFTESSSDKLSLEGIVVQRAECRPAASENYMRLKRLQIEESSKPVRLSQQLDKVVTTNYKPVANHQYNIEYERKKKEDGKRARADKQHVLDMLFSAFEKHQYYNLKDLVDITKQPVVYLKEILKEIGVQNVKGIHKNTWELKPEYRHYQGEEKSD [GTF2F2]
thermal stability score (HeLa Kyoto [1]; [5]): 0.0893 | thermal stability score (HeLa Kyoto [1]; cell cycle stage: mitosis): 0.0418 | solubility change mitosis (log2) (HeLa Kyoto [2]): -0.0476 | solubility in G1/S (log2) (HeLa Kyoto [3]): 0.436 | melting temperature (HeLa Kyoto [4]; cell cycle stage: G1/S): 52.6 °C | melting temperature (HeLa Kyoto [4]; cell cycle stage: mitosis): 52.6 °C

MAERGYSFSLTTFSPSGKLVQIEYALAAVAGGAPSVGIKAANGVVLATEKKQKSILYDERSVHKVEPITKHIGLVYSGMGPDYRVLVHRARKLAQQYYLVYQEPIPTAQLVQRVASVMQEYTQSGGVRPFGVSLLICGWNEGRPYLFQSDPSGAYFAWKATAMGKNYVNGKTFLEKRYNEDLELEDAIHTAILTLKESFEGQMTEDNIEVGICNEAGFRRLTPTEVKDYLAAIA [PSMA2]
thermal stability score (HeLa Kyoto [1]; [5]): -1.52 | thermal stability score (HeLa Kyoto [1]; cell cycle stage: mitosis): -1.53 | solubility change mitosis (log2) (HeLa Kyoto [2]): -0.045 | solubility in G1/S (log2) (HeLa Kyoto [3]): 0.391 | melting temperature (HeLa Kyoto [4]; cell cycle stage: G1/S): 58.3 °C | melting temperature (HeLa Kyoto [4]; cell cycle stage: mitosis): 60.8 °C
